The record followed here is the FLAb antibody collection (doi:10.1101/2023.12.08.570889).

The labels stand for the following.
B1: unnamed (protein)
chain 1: QMQLVESGGGVVQPGRSLRLSCAASGFTFSTFAMHWVRQAPGKGLEWVAVIWYDGSNKHYADSVKGRFTITRDNSKNTLNLQMNSLRAEDTAVYYCARAPRYDEYVEAFDVWGQGTMVTVSS
chain 2: SYVLTQPPSVSVAPGQTARITCGGNNLGSKSVHWYQQKPGQAPVLVVYDDSDRPSWIPERFSGSNSGNTATLTISRGEAGDEADYYCQVWDSSSDHVVFGGGTKLTVL
B2: unnamed (protein)
chain 1: QMQLVESGGGVVQPGRSLRLSCAASGFTFSTFAMHWVRQAPGKGLEWVAVIWYDGSNKHYADSVKGRFTITRDNSKNTLNLQMNSLRAEDTAVYYCARAPRYDWDYEAFDVWGQGTMVTVSS
chain 2: SYVLTQPPSVSVAPGQTARITCGGNNLGSKSVHWYQQKPGQAPVLVVYDDSDRPSWIPERFSGSNSGNTATLTISRGEAGDEADYYCQVWDSSSDHVVFGGGTKLTVL
B3: unnamed (protein)
chain 1: QMQLVESGGGVVQPGRSLRLSCAASGFTFSTFAMHWVRQAPGKGLEWVAVIWYDGSNKHYADSVKGRFTITRDNSKNTLNLQMNSLRAEDTAVYYCARAPRYYEYWEAFDVWGQGTMVTVSS
chain 2: SYVLTQPPSVSVAPGQTARITCGGNNLGSKSVHWYQQKPGQAPVLVVYDDSDRPSWIPERFSGSNSGNTATLTISRGEAGDEADYYCQVWDSSSDHVVFGGGTKLTVL
B4: unnamed (protein)
chain 1: QMQLVESGGGVVQPGRSLRLSCAASGFTFSTFAMHWVRQAPGKGLEWVAVIWYDGSNKHYADSVKGRFTITRDNSKNTLNLQMNSLRAEDTAVYYCARSPRYDEYYEAFDVWGQGTMVTVSS
chain 2: SYVLTQPPSVSVAPGQTARITCGGNNLGSKSVHWYQQKPGQAPVLVVYDDSDRPSWIPERFSGSNSGNTATLTISRGEAGDEADYYCQVWDSSSDHVVFGGGTKLTVL
B5: unnamed (protein)
chain 1: QMQLVESGGGVVQPGRSLRLSCAASGFTFSTFAMHWVRQAPGKGLEWVAVIWYDGSNKHYADSVKGRFTITRDNSKNTLNLQMNSLRAEDTAVYYCARAPRYYWYWEAFDVWGQGTMVTVSS
chain 2: SYVLTQPPSVSVAPGQTARITCGGNNLGSKSVHWYQQKPGQAPVLVVYDDSDRPSWIPERFSGSNSGNTATLTISRGEAGDEADYYCQVWDSSSDHVVFGGGTKLTVL
B6: unnamed (protein)
chain 1: QMQLVESGGGVVQPGRSLRLSCAASGFTFSTFAMHWVRQAPGKGLEWVAVIWYDGSNKHYADSVKGRFTITRDNSKNTLNLQMNSLRAEDTAVYYCARSPRYDEYLEAFDVWGQGTMVTVSS
chain 2: SYVLTQPPSVSVAPGQTARITCGGNNLGSKSVHWYQQKPGQAPVLVVYDDSDRPSWIPERFSGSNSGNTATLTISRGEAGDEADYYCQVWDSSSDHVVFGGGTKLTVL
B7: unnamed (protein)
chain 1: QMQLVESGGGVVQPGRSLRLSCAASGFTFSTFAMHWVRQAPGKGLEWVAVIWYDGSNKHYADSVKGRFTITRDNSKNTLNLQMNSLRAEDTAVYYCARSPRYDDYWEAFDVWGQGTMVTVSS
chain 2: SYVLTQPPSVSVAPGQTARITCGGNNLGSKSVHWYQQKPGQAPVLVVYDDSDRPSWIPERFSGSNSGNTATLTISRGEAGDEADYYCQVWDSSSDHVVFGGGTKLTVL
B8: unnamed (protein)
chain 1: QMQLVESGGGVVQPGRSLRLSCAASGFTFSTFAMHWVRQAPGKGLEWVAVIWYDGSNKHYADSVKGRFTITRDNSKNTLNLQMNSLRAEDTAVYYCARAPRYDEYLEAFDVWGQGTMVTVSS
chain 2: SYVLTQPPSVSVAPGQTARITCGGNNLGSKSVHWYQQKPGQAPVLVVYDDSDRPSWIPERFSGSNSGNTATLTISRGEAGDEADYYCQVWDSSSDHVVFGGGTKLTVL
B9: unnamed (protein)
chain 1: QMQLVESGGGVVQPGRSLRLSCAASGFTFSTYAMHWVRQAPGKGLEWVAVIWYDGSNKHYADSVKGRFTITRDNSKNTLNLQMNSLRAEDTAVYYCARAPRYYYYYEAFDVWGQGTMVTVSS
chain 2: SYVLTQPPSVSVAPGQTARITCGGNNLGSKSVHWYQQKPGQAPVLVVYDDSDRPSWIPERFSGSNSGNTATLTISRGEAGDEADYYCQVWDSSSDHVVFGGGTKLTVL
B10: unnamed (protein)
chain 1: QMQLVESGGGVVQPGRSLRLSCAASGFTFSTFAMHWVRQAPGKGLEWVAVIWYDGSNKHYADSVKGRFTITRDNSKNTLNLQMNSLRAEDTAVYYCARSPRYDYYYEAFDVWGQGTMVTVSS
chain 2: SYVLTQPPSVSVAPGQTARITCGGNNLGSKSVHWYQQKPGQAPVLVVYDDSDRPSWIPERFSGSNSGNTATLTISRGEAGDEADYYCQVWDSSSDHVVFGGGTKLTVL
B11: unnamed (protein)
chain 1: QMQLVESGGGVVQPGRSLRLSCAASGFTFSTFAMHWVRQAPGKGLEWVAVIWYDGSNKHYADSVKGRFTITRDNSKNTLNLQMNSLRAEDTAVYYCARAPRYDYYLEAFDVWGQGTMVTVSS
chain 2: SYVLTQPPSVSVAPGQTARITCGGNNLGSKSVHWYQQKPGQAPVLVVYDDSDRPSWIPERFSGSNSGNTATLTISRGEAGDEADYYCQVWDSSSDHVVFGGGTKLTVL
B12: unnamed (protein)
chain 1: QMQLVESGGGVVQPGRSLRLSCAASGFTFSTYAMHWVRQAPGKGLEWVAVIWYDGSNKHYADSVKGRFTITRDNSKNTLNLQMNSLRAEDTAVYYCARAPRYDDAYEAFDVWGQGTMVTVSS
chain 2: SYVLTQPPSVSVAPGQTARITCGGNNLGSKSVHWYQQKPGQAPVLVVYDDSDRPSWIPERFSGSNSGNTATLTISRGEAGDEADYYCQVWDSSSDHVVFGGGTKLTVL
B13: unnamed (protein)
chain 1: QMQLVESGGGVVQPGRSLRLSCAASGFTFSTFAMHWVRQAPGKGLEWVAVIWYDGSNKHYADSVKGRFTITRDNSKNTLNLQMNSLRAEDTAVYYCARSPRYDEYWEAFDVWGQGTMVTVSS
chain 2: SYVLTQPPSVSVAPGQTARITCGGNNLGSKSVHWYQQKPGQAPVLVVYDDSDRPSWIPERFSGSNSGNTATLTISRGEAGDEADYYCQVWDSSSDHVVFGGGTKLTVL
B14: unnamed (protein)
chain 1: QMQLVESGGGVVQPGRSLRLSCAASGFTFSTYAMHWVRQAPGKGLEWVAVIWYDGSNKHYADSVKGRFTITRDNSKNTLNLQMNSLRAEDTAVYYCARAPRYDYYYEAFDVWGQGTMVTVSS
chain 2: SYVLTQPPSVSVAPGQTARITCGGNNLGSKSVHWYQQKPGQAPVLVVYDDSDRPSWIPERFSGSNSGNTATLTISRGEAGDEADYYCQVWDSSSDHVVFGGGTKLTVL
B15: unnamed (protein)
chain 1: QMQLVESGGGVVQPGRSLRLSCAASGFTFSTYAMHWVRQAPGKGLEWVAVIWYDGSNKHYADSVKGRFTITRDNSKNTLNLQMNSLRAEDTAVYYCARSPRYDWYYEAFDVWGQGTMVTVSS
chain 2: SYVLTQPPSVSVAPGQTARITCGGNNLGSKSVHWYQQKPGQAPVLVVYDDSDRPSWIPERFSGSNSGNTATLTISRGEAGDEADYYCQVWDSSSDHVVFGGGTKLTVL
B16: unnamed (protein)
chain 1: QMQLVESGGGVVQPGRSLRLSCAASGFTFSTFAMHWVRQAPGKGLEWVAVIWYDGSNKHYADSVKGRFTITRDNSKNTLNLQMNSLRAEDTAVYYCARAPRYDDAYEAFDVWGQGTMVTVSS
chain 2: SYVLTQPPSVSVAPGQTARITCGGNNLGSKSVHWYQQKPGQAPVLVVYDDSDRPSWIPERFSGSNSGNTATLTISRGEAGDEADYYCQVWDSSSDHVVFGGGTKLTVL
B17: unnamed (protein)
chain 1: QMQLVESGGGVVQPGRSLRLSCAASGFTFSTYAMHWVRQAPGKGLEWVAVIWYDGSNKHYADSVKGRFTITRDNSKNTLNLQMNSLRAEDTAVYYCARAPRYYEYWEAFDVWGQGTMVTVSS
chain 2: SYVLTQPPSVSVAPGQTARITCGGNNLGSKSVHWYQQKPGQAPVLVVYDDSDRPSWIPERFSGSNSGNTATLTISRGEAGDEADYYCQVWDSSSDHVVFGGGTKLTVL
B18: unnamed (protein)
chain 1: QMQLVESGGGVVQPGRSLRLSCAASGFTFSTYAMHWVRQAPGKGLEWVAVIWYDGSNKHYADSVKGRFTITRDNSKNTLNLQMNSLRAEDTAVYYCARAPRYYEYYEAFDVWGQGTMVTVSS
chain 2: SYVLTQPPSVSVAPGQTARITCGGNNLGSKSVHWYQQKPGQAPVLVVYDDSDRPSWIPERFSGSNSGNTATLTISRGEAGDEADYYCQVWDSSSDHVVFGGGTKLTVL
B19: unnamed (protein)
chain 1: QMQLVESGGGVVQPGRSLRLSCAASGFTFSTFAMHWVRQAPGKGLEWVAVIWYDGSNKHYADSVKGRFTITRDNSKNTLNLQMNSLRAEDTAVYYCARSPRYDWYYEAFDVWGQGTMVTVSS
chain 2: SYVLTQPPSVSVAPGQTARITCGGNNLGSKSVHWYQQKPGQAPVLVVYDDSDRPSWIPERFSGSNSGNTATLTISRGEAGDEADYYCQVWDSSSDHVVFGGGTKLTVL

For the assay, the target named is TSLP, Q969D9. Kind of assay: Kd (SPR).
The Kd is the free concentration of one partner at which half of the binding sites on the other are occupied at equilibrium, for simple one-to-one binding. The low end stands for a tighter complex, the high end for a looser complex. B1 came in with a Kd of 129 nM.

Turning to B2, the Kd came out at 349 nM.

For the molecule B3, the equilibrium dissociation constant (Kd) amounted to 190 nM.

B4: the Kd is 103 nM.

Turning to B5, the Kd came out at 353 nM.

Turning to B6, the Kd was found to be 117 nM.

In turn, B7 displayed a Kd of 320 nM.

B8 showed a Kd of 305 nM.

Take B9: the Kd came to 152 nM.

As to B10, the dissociation constant (Kd) turned out to be 372 nM.

Consider B11, for which the Kd was 519 nM.

For B12, the Kd turned out to be 370 nM.

For B13, the Kd stood at 31.6 nM.

B14 yielded a Kd of 315 nM.

In turn, B15 had a Kd of 96.3 nM.

Molecule B16 returned a Kd of 387 nM.

B17: the Kd was determined as 285 nM.

For the molecule B18, the Kd came to 105 nM.

For B19, the Kd came to 126 nM.
